This is an account of results in the nanobody polyreactivity screen of Harvey et al. (2022).

This data set can be described thus: yeast display, Sf9 membrane polyspecificity reagent, FACS + sequencing; frameworks hold sequencing errors. In short, it runs like this: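 Synthetic nanobody libraries on Saccharomyces cerevisiae BJ5465 were galactose-induced for 36–48 hours, stained 1 hour at 4 °C with 10% biotinylated, detergent-solubilized Sf9 membrane reagent and enriched on streptavidin microbeads. FACS then separated cells into low and high (top ~1%) gates by anti-HA (expression) and streptavidin (reagent binding) fluorescence. Genes were colony-PCR amplified, MiSeq 2 × 250 sequenced and CDR-length filtered. A clone's polyreactivity label is that of its gate of origin.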
Turning to “QVQLVESGGGLVQAGGSLRLSCAASGRIFRYYAMGWYRQAPGKEREFVAAINSSGVNTYYADSVKGRFTISRDNAKNTVYLQMNSLKPEDTAVYYCAFLGMDYWGQGTQVTVSS”, the “polyreactivity (PSR sort gate)” value is listed as “high polyreactivity”.

“QVQLVESGGGLVQAGGSLRLSCAASGRIFRYYAMGWYRQAPGKERELVAAINSGGSTKYADSVKGRFTISRDNAKNTVYLQMNSLTPEDTAVYYCNKDHAFSRYWYGGFDYWGQGTQVTVSS”: the “polyreactivity (PSR sort gate)” value is “high polyreactivity”.

As to “QVQLVESGGGLVQAGGSLRLSCAASGRIFRYYAMGWYRQAPGKERELVAAIRGGGSTYYADSVKGRFTISRDNAKNTVYLQMNSLKPEDTAVYYCAAPLIISTLWYKRYDYWGQGTQVTVSS”, the “polyreactivity (PSR sort gate)” value is reported as “high polyreactivity”.

Regarding “QVQLVESGGGLVQAGGSLRLSCAASGRIFRYYAMGWYRQAPGKERELVAAISGTGGNTYYADSVKGRSTISRDNAKNTVYLQMNSLKPEDTAVYYCAADQEWYYYFDSFAYYILDYWGQGTQVTVSS”, the “polyreactivity (PSR sort gate)” value is reported as “high polyreactivity”.

For “QVQLVESGGGLVQAGGSLRLSCAASGRIFRYYAMGWYRQAPGKERELVAAISKTGGSTYYADSVKGRFTISRDNAKNTVYLQMNSLKPEDTAVYYCAAVGRYSYLSSEGDYWGQGTQVTVSS”, the “polyreactivity (PSR sort gate)” value is listed as “high polyreactivity”.

With “QVQLVESGGGLVQAGGSLRLSCAASGRIFRYYAMGWYRQAPGKERELVAAISSGGRTYYADSVKGRFTISRDNAKNTVYLQMNSLKPEDTAVYYCNAYAYHAGGDYWGQGTQVTVSS”, the “polyreactivity (PSR sort gate)” value was “high polyreactivity”.

Regarding “QVQLVESGGGLVQAGGSLRLSCAASGRIFRYYAMGWYRQAPGKERELVAAISSGVGNTYYADSVKWRFTISRDNAKNTVYLQKNSLKPEDTAVYYCNAKWRKFGTVRYDYWGQGTQVTVSS”, the “polyreactivity (PSR sort gate)” value was “high polyreactivity”.

As to “QVQLVESGGGLVQAGGSLRLSCAASGRIFRYYAMGWYRQAPGKERELVADSTRGGGSTYYADSVKGRFTISRDNAKNTVYLQMNSLKPEDTAVYYCAKDGSGGLPVLYRYRYDYWGQGTQVTVSS”, the “polyreactivity (PSR sort gate)” value was “high polyreactivity”.

As to “QVQLVESGGGLVQAGGSLRLSCAASGRIFRYYAMGWYRQAPGKERELVAGISRSGGRTYYADSVKGRFTISRDNAKNTVYLQMNSLKPEDTAVYYCNASRGYPYHYDYWGQGTQVTVSS”, the “polyreactivity (PSR sort gate)” value is “high polyreactivity”.

In the case of “QVQLVESGGGLVQAGGSLRLSCAASGRIFRYYSMGWYRQAPGKERELVAAISGGGSTYYADSVKGRFTISRDNAKNTVYLQMNSLKPEDTAVYYCAALRSSQSKGDYWGQGTQVTVSS”, the “polyreactivity (PSR sort gate)” value was “high polyreactivity”.

Consider “QVQLVESGGGLVQAGGSLRLSCAASGRIFRYYTMGWYRQAPGKERELVAAIRLAGSTTYYADSVKGRFTISRDNAKNTVYLQMNSLNPEDSAVYSCTTRYPVPSGYDYWGHGTQVTVSS”, for which the “polyreactivity (PSR sort gate)” value is reported as “high polyreactivity”.

Turning to “QVQLVESGGGLVQAGGSLRLSCAASGRIFRYYTMGWYTPAPGNERELVAAISSSGGRTYYADSVKGRFTISRDNAKNTVYLQMNSLKPEDTAVYYCNAYRRFSAFDYWGQGTQVTVTS”, the “polyreactivity (PSR sort gate)” value was “high polyreactivity”.

Take “QVQLVESGGGLVQAGGSLRLSCAASGRIFSAYAMGWYRQAPGKEREFVAAISSRGGSTNYADSVKGRFTISRDNANNTVYLHMNSLKPEDTAVYYCNARYVQWYWIGKVIHIDNDYWGQGTQVNVSS”: the “polyreactivity (PSR sort gate)” value is listed as “low polyreactivity”.

For “QVQLVESGGGLVQAGGSLRLSCAASGRIFSAYVMGWYRQAPGKERELVAAISSGGSRTSYADSVKGRVTISRDNAKNTVYLQMISLKPEDTAVYYCAASATFWGQGTQVNVSS”, the “polyreactivity (PSR sort gate)” value is on record as “high polyreactivity”.

“QVQLVESGGGLVQAGGSLRLSCAASGRIFSDYAMGWYRQAPGKERELVATISASGGSTYYADSVKGRFTVSRDNAKNSVYLQMNSLKPEDTAVYYCAGDYEGYNFDYWGQGTQVTVSS”: the “polyreactivity (PSR sort gate)” value is given as “low polyreactivity”.

“QVQLVESGGGLVQAGGSLRLSCAASGRIFSEYAMGWYRQAPGKERELVAAISRRGGRTYYADSVKGRFTISRDNAKNTVYLQMNSLKPEETAVYYCAAKIIWFTIRHGSAGFKYWGQGTQVTVSS”: the “polyreactivity (PSR sort gate)” value is recorded as “high polyreactivity”.

“QVQLVESGGGLVQAGGSLRLSCAASGRIFSFNAMGWYRQAPGKERELVASGGSTYADSVKGRFTISRDNAKNTVYLQMNSLKPEETAVYYCAADPFYYFPSPFDYWGQGTQVTVSS”: the “polyreactivity (PSR sort gate)” value is given as “low polyreactivity”.

Turning to “QVQLVESGGGLVQAGGSLRLSCAASGRIFSFYAMGWKRQAPGKERELVAAITWGDGSTYYADSVKGRFTISRDNAKNTVYLQMNSLKPEDTAVYYCNKTYIDTTVYDVIMDYWGQGTQVTVSS”, the “polyreactivity (PSR sort gate)” value is “low polyreactivity”.

Consider “QVQLVESGGGLVQAGGSLRLSCAASGRIFSFYAMGWYRQAPGKERELVAAITYTDGSTYADSVKGRFTISRDNAKNTVYLQMNSLKPEDTAVYYCATRYRWTPYDYWGQGTQVTVSS”, for which the “polyreactivity (PSR sort gate)” value was “low polyreactivity”.

As to “QVQLVESGGGLVQAGGSLRLSCAASGRIFSGNAMGWYRQAPGKERELVAAISWSGGSTYYADSVKGRFTISRDNAKNSVYLQMNSLKPEDTAVSYCNAPGYRRYGSRMGYWGQGTQVTVSS”, the “polyreactivity (PSR sort gate)” value is “high polyreactivity”.

Consider “QVQLVESGGGLVQAGGSLRLSCAASGRIFSGYAMGWYRQATGKERELVAAITSVGSTNYADSVKGRFTISRDNAKNTVYLQMNSLKPEDTAVYYCAARSQIYYRYRSYGYWGQGTQVTVSS”, for which the “polyreactivity (PSR sort gate)” value is recorded as “high polyreactivity”.

For “QVQLVESGGGLVQAGGSLRLSCAASGRIFSGYTMGWYRQAPGKERELVAAITRSGGSTYYADSVKGRFTISRDNAKNTVYLQMISLKPEDTAVYYCNKVSYRHMDSWGQGTQVTVSS”, the “polyreactivity (PSR sort gate)” value is reported as “high polyreactivity”.

As to “QVQLVESGGGLVQAGGSLRLSCAASGRIFSHNAMGWYRQAPGKERELVAAITGSGGTTYYADSVKGRFKISRDNAKNTVYLQMNSLKPEDTAVYYCAADWQQLSYVWRSQRRYNYWGQGTQVTVSS”, the “polyreactivity (PSR sort gate)” value is “low polyreactivity”.

On to “QVQLVESGGGLVQAGGSLRLSCAASGRIFSIYAMGWYRQAPGKEREFVAAITQSGGSTYYADSVKGRFTISRDNAKNTVYLQMNSLKPEDTAVYYCAADEWGVRSEYDYWGQGTQVTVSS”, for which the “polyreactivity (PSR sort gate)” value was “low polyreactivity”.

For “QVQLVESGGGLVQAGGSLRLSCAASGRIFSIYAMGWYRQAPVKERELVAAISKRGGSTSYADSVKGRFTISRDNAKNTVYLQMNSLKPEDTAVYYCNARGWIPARGWDDYYWGQGTQVTVSS”, the “polyreactivity (PSR sort gate)” value is recorded as “high polyreactivity”.

For “QVQLVESGGGLVQAGGSLRLSCAASGRIFSIYGMGWYRQAPGKEREFVASITYSGGSTYYADSVKGRFTISRDYAKNTVYLQMNSLKPEDTAVYYCNADIEKSYNYWGQGTQVTVSS”, the “polyreactivity (PSR sort gate)” value is “low polyreactivity”.

Regarding “QVQLVESGGGLVQAGGSLRLSCAASGRIFSIYGMGWYRQAPGKERELVAVISGSVAITYYADSVKGRFTISRDNAKNTVYLQMNSLKPEDTAVYYCAAVYQSRLWARYYYWGQGSQVTVSS”, the “polyreactivity (PSR sort gate)” value is “high polyreactivity”.

With “QVQLVESGGGLVQAGGSLRLSCAASGRIFSIYGMGWYRQAPGKERELVAVISGSVGITYYADSVKGRFTISRDNAKNTVYLQMNSLKPEDTAVYYCNAKFRRRKYDYWGQGTQVTVSS”, the “polyreactivity (PSR sort gate)” value is “high polyreactivity”.

For “QVQLVESGGGLVQAGGSLRLSCAASGRIFSKYAMGWYRQAPGKERELVAAIRSGGRTYYADSVKGRFTISRDNAKNTVYLQMNSLKPEDTAVYYCAKGTFRYPFSFTFLGYDYWGQGTQVTVSS”, the “polyreactivity (PSR sort gate)” value was “high polyreactivity”.

For “QVQLVESGGGLVQAGGSLRLSCAASGRIFSLYAMGWYRQAPGKERELVAAISWSGGTTYDADSVKGRFTISRDNAKNTVYLQMNSLKPEDTAVYYCAAQYIGKKRFNYWGQGTQVTVSS”, the “polyreactivity (PSR sort gate)” value is on record as “high polyreactivity”.

As for “QVQLVESGGGLVQAGGSLRLSCAASGRIFSNNAMGWYRQAPGKERELVATITGSGGRTYYADSVKGRFTISRDIAKNSVYLQMNSLKPEDTAVYYCNADLYSYYWRVRYGLDYWGQGTQVTVSS”, the “polyreactivity (PSR sort gate)” value is on record as “high polyreactivity”.

For the sequence “QVQLVESGGGLVQAGGSLRLSCAASGRIFSNYAMGWYRHAPGKEREFVAAISGSGGITYYADSVKGRFTISRDNAKNTFYLQMNSLKPEDTAVYYCARRLHYVPLISYNYWGQGTQVTVSS”, the “polyreactivity (PSR sort gate)” value was “low polyreactivity”.

Regarding “QVQLVESGGGLVQAGGSLRLSCAASGRIFSNYAMGWYRQAPGKERELVAAISRGGGRTFYADSVKGRFTISRDNAKNTVYLQMNSLKPEDTAVYYCATRSYYVKGDYWGQGTQVNVSS”, the “polyreactivity (PSR sort gate)” value is on record as “high polyreactivity”.

For “QVQLVESGGGLVQAGGSLRLSCAASGRIFSPNAMGWYRQAPGKERELVAAITRGGSTNYADSVKGRFTISRDNAKNTVYLQMNSLKPEDTAVYYCAAQLAKTIRGRGYNSWGQGTKVTVSS”, the “polyreactivity (PSR sort gate)” value is “low polyreactivity”.

As for “QVQLVESGGGLVQAGGSLRLSCAASGRIFSQNAMGWYRKAPGKERELVAAIRYSTGSTYYADSVKGRFTISRDNAKNTVYLQMNSLKPEDTAVYYCAADRWVSGYRRPRRGQAHYYWGQGTQVTVSS”, the “polyreactivity (PSR sort gate)” value is listed as “high polyreactivity”.

“QVQLVESGGGLVQAGGSLRLSCAASGRIFSQYAMGWYRQAPGKERELVAAISRRTGSTYYADSVKVRFTISRDNAKNTVYLQMNSLKPDDTAVYFCNKARLGWSYRQDDYWGQGTQVTVSS”: the “polyreactivity (PSR sort gate)” value is listed as “high polyreactivity”.

As to “QVQLVESGGGLVQAGGSLRLSCAASGRIFSRNAMGWYRKAPGKERELVATISAGGGRTSYADSVKGRFTISRDNAKNTVYLQMNSLKPEDTADYYCAARGQVGYYWGQGTQVTVSS”, the “polyreactivity (PSR sort gate)” value is given as “high polyreactivity”.

Turning to “QVQLVESGGGLVQAGGSLRLSCAASGRIFSRNAMGWYRQAPGKERDLVAAITWRGGSTNYADSVKGRFTISRDNAKNTVYLQMNSLKPEDTAVYYCAARISRYPQDDSDYWGQGTQVTVSS”, the “polyreactivity (PSR sort gate)” value is given as “high polyreactivity”.

For the sequence “QVQLVESGGGLVQAGGSLRLSCAASGRIFSRNAMGWYRQAPGKERELVAAISGSGTSTYYAVSVKGRFTISRDNAKNTVYLQMNSLKPEDTAVSYCAADYPAVISIRRYDYWGQGTQVTVSS”, the “polyreactivity (PSR sort gate)” value was “low polyreactivity”.

Regarding “QVQLVESGGGLVQAGGSLRLSCAASGRIFSRNAMGWYRQAPGKERELVAAITRIGGSTYYADSVKGRFTISRDTAKNTVYLQMNSRKPEDTAVYYSAARGSGKYGWGQGTQVTVSS”, the “polyreactivity (PSR sort gate)” value is on record as “high polyreactivity”.

As to “QVQLVESGGGLVQAGGSLRLSCAASGRIFSRNTMGWYRQAPGKERELVATISWSGSRTYYADSVKGRFTISRDNAKNTVYLQMNSLKPEDTAVYYCAARLWPSYLSYGKTGDYWGQGTQVTVSS”, the “polyreactivity (PSR sort gate)” value was “high polyreactivity”.
